Drawing on paper PMC2935386, “Dissecting the Relation between a Nuclear Receptor and GATA: Binding Affinity Studies of Thyroid Hormone Receptor and GATA2 on TSHβ Promoter”, this text covers binding result and Kd for four molecules.

In series [1] the target is T1, TRβ1 DBD-LBD (TR DL, TRβ1ΔAB) (human, UniProt P10828 102-461).
T1 sequence: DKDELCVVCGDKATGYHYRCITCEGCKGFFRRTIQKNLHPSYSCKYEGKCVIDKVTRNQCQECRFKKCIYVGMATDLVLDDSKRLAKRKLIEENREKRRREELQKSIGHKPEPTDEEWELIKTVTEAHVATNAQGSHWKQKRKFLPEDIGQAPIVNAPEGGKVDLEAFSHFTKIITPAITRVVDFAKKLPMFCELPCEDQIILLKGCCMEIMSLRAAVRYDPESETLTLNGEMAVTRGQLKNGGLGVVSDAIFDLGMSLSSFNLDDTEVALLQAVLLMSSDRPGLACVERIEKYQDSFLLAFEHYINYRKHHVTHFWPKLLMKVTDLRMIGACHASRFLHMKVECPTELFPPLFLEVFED
The series is described as follows: fluorescence anisotropy; no T3; up to 10000 nM; Fluorescence anisotropy: 10 nM DNA, 20 mM Hepes pH 8.0, 50 mM NaCl, 1 mM MgCl2, 3 mM DTT, 5% glycerol, 10°C; agarose gel 1.3% in 0.5x TBE. To be noted: protein: recombinant; tags: His (pET28a); chain copies: 2; label: 5' fluorescein (FITC) on forward strand; blunt. (Polarisation of emitted light reports the rotation of a fluorescent probe.)

For series [2], the target named is T2, GATA2-Zf (UniProt P23769 291-412). The series is described as follows: fluorescence anisotropy; Hill n 1.3±0.4; Fluorescence anisotropy: 10 nM DNA, 20 mM Hepes pH 8.0, 50 mM NaCl, 1 mM MgCl2, 3 mM DTT, 5% glycerol, 10°C; agarose gel 1.3% in 0.5x TBE. The settings on record: protein: recombinant; tags: His, thrombin treated; label: 5' fluorescein (FITC) on forward strand; blunt.
T2 sequence (P23769 291-412): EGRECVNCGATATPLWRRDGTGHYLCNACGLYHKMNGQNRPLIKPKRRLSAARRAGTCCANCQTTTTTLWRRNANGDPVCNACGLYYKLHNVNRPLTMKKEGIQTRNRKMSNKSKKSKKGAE

The target in series [3] is T1, TRβ1 DBD-LBD (TR DL, TRβ1ΔAB). The series is described as follows: fluorescence anisotropy; T3; Hill n 2±0.4; Fluorescence anisotropy: 10 nM DNA, 20 mM Hepes pH 8.0, 50 mM NaCl, 1 mM MgCl2, 3 mM DTT, 5% glycerol, 10°C; agarose gel 1.3% in 0.5x TBE. The settings on record: protein: recombinant; tags: His (pET28a); chain copies: 2; label: 5' fluorescein (FITC) on forward strand; blunt.

For series [4] the target is unchanged. The series is described as follows: fluorescence anisotropy; no T3; Hill n 1±0.1; Fluorescence anisotropy: 10 nM DNA, 20 mM Hepes pH 8.0, 50 mM NaCl, 1 mM MgCl2, 3 mM DTT, 5% glycerol, 10°C; agarose gel 1.3% in 0.5x TBE. To be noted: protein: recombinant; tags: His (pET28a); chain copies: 2; label: 5' fluorescein (FITC) on forward strand; blunt.
For series [5] the target is unchanged. The series is described as follows: fluorescence anisotropy; no T3; Hill n 3.5±0.1; Fluorescence anisotropy: 10 nM DNA, 20 mM Hepes pH 8.0, 50 mM NaCl, 1 mM MgCl2, 3 mM DTT, 5% glycerol, 10°C; agarose gel 1.3% in 0.5x TBE. To be noted: protein: recombinant; tags: His (pET28a); chain copies: 2; label: 5' fluorescein (FITC) on forward strand; blunt.
Series [6] addresses T2, GATA2-Zf. The series is described as follows: fluorescence anisotropy; Hill n 3.1±0.4; Fluorescence anisotropy: 10 nM DNA, 20 mM Hepes pH 8.0, 50 mM NaCl, 1 mM MgCl2, 3 mM DTT, 5% glycerol, 10°C; agarose gel 1.3% in 0.5x TBE. To be noted: protein: recombinant; tags: His, thrombin treated; label: 5' fluorescein (FITC) on forward strand; blunt.
The next series concerns the target T3, TRβ1 DBD (TRβ1ΔAB/EF) (human, UniProt P10828 102-198).
T3 sequence: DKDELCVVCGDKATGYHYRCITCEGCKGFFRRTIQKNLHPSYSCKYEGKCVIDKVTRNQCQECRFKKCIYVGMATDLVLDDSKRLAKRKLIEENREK
The series is described as follows: gel filtration + agarose EMSA; 100 uM protein; DNA label not stated; Fluorescence anisotropy: 10 nM DNA, 20 mM Hepes pH 8.0, 50 mM NaCl, 1 mM MgCl2, 3 mM DTT, 5% glycerol, 10°C; agarose gel 1.3% in 0.5x TBE. To be noted: protein: recombinant; tags: His (pET28a); label: 5' fluorescein (FITC) on forward strand; blunt.

B1: GATA-RE (canonical) (dsDNA)
DNA 1: CACTTGATAACAGAAAGTGATAACTCT
DNA 2: AGAGTTATCACTTTCTGTTATCAAGTG
In the case of B1, the binding result in series [1] was “no binding”. For the same molecule, the Kd – broadly, the concentration at which binding is half-saturated – with GATA2-Zf [2] came to 14.9 ± 1.5 nM.

B2: DR4 TRE (dsDNA)
DNA 1: AGTTCAGGTCACAGGAGGTCAGAG
DNA 2: CTCTGACCTCCTGTGACCTGAACT
B2: the Kd in series [3] was found to be 1980 ± 295 nM; in series [4], 2040 ± 266 nM.

B3: TSH NRE (dsDNA)
DNA 1: TGGGTCACCACAGCATCTGCTCACCAATGCAAAGT
DNA 2: ACTTTGCATTGGTGAGCAGATGCTGTGGTGACCCA
As for B3, the Kd in series [5] is 316 ± 29 nM.

B4: TSH GATA-RE (dsDNA)
DNA 1: TCAATAGATGCTTTTCAGATAAGAA
DNA 2: TTCTTATCTGAAAAGCATCTATTGA
With B4, the equilibrium dissociation constant (Kd) in the series with GATA2-Zf [6] is 689 ± 38.7 nM. Besides, the binding result in series [1] is listed as “no binding”; in the series with TRβ1 DBD (TRβ1ΔAB/EF), “binds”.
